Measured values: patent US20090226428A1 (CEPHALON AUSTRALIA, published 2009)
Residue numbers refer to the chain shown, from its start.

Tests used:
human TNF-α [1] = target: T1, human TNF-α (human, UniProt P01375 77-233); experiment: cell-based or functional assay
human TNF-α [2] = target: T1, human TNF-α; experiment: receptor binding assay (ELISA): dAb mixed with TNF (10 ng/ml), binding of TNF to captured TNF receptor 1 Fc fusion protein detected; blocked partner TNF receptor 1-Fc
Procedure: dAbs diversified in the 14 selected positions were tested for the ability to inhibit the binding of TNF to recombinant TNF receptor 1 (p55). Briefly, Maxisorp plates were incubated overnight with […] anti-human Fc mouse monoclonal antibody (Zymed, San Francisco, USA). The wells were washed with phosphate buffered saline (PBS) containing 0.05% Tween-20 and then blocked with 1% BSA in PBS before being incubated with 100 ng/ml TNF receptor 1 Fc fusion protein (R&D Systems, Minneapolis, USA). Each dAb was mixed with TNF which was added to the washed wells at a final concentration of 10 ng/ml. TNF binding was detected with 0.2 mg/ml biotinylated anti-TNF antibody (HyCult biotechnology, Uben, Netherlands) followed by 1 in 500 dilution of horse radish peroxidase labelled streptavidin (Amersham Biosciences, UK) and then incubation with TMB substrate (KPL, Gaithersburg, USA). The reaction was stopped by the addition of HCl and the absorbance was read at 450 nm. Anti-TNF dAb activity lead to a decrease in TNF binding and therefore a decrease in absorbance compared with the TNF only control (FIG. 5).

T1 sequence (P01375 77-233 limits assumed): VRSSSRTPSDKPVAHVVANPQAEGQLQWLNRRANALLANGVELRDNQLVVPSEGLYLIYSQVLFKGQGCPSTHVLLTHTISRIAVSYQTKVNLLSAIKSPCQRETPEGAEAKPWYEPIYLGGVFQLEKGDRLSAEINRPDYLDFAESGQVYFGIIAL

B1: Compound 100 (other)
VL: DIQMTQSPSSLSASVGDRVTITCRASQSIDSYLHWYQQKPGKAPKLLIYSASNLETGVPSRFSGSGSGTDFTLTISSLLPEDFATYYCQQVVWRPFTFGQGTKVEIKR
- EC50 (read off the curve); L929 cytotoxicity assay, cell viability (% control) (human TNF-α [1]): ~50 nM

B2: Compound 123 (other)
VL: B1 VL with S28A, L79Q
- EC50 (read off the curve); L929 cytotoxicity assay, cell viability (% control) (human TNF-α [1]): ~50 nM

B3: Compound 145 (marmoset CDR-grafted dAb) (other)
VL: B1 VL with L79Q
notes: also called parent dAb
- IC50 (read off the curve) (human TNF-α [2]): ~30 nM

B4: Acceptor dAb (Compound 128) (other)
VL: B1 VL with N53E, E55Q, T56S, L79Q
notes: also called acceptor variable region (anti-TNF domain antibody)
- IC50 (read off the curve) (human TNF-α [2]): ~30 nM
